Experiments:
[1] = target: T1, SARS-CoV-2 RBD (SinoBiological, Cat. No. 40592-V02H) (SARS-CoV-2, UniProt P0DTC2 319-541); test: ELISA on SARS-CoV-2 RBD
T1 construct: domain: RBD

[2] = target: T1, SARS-CoV-2 RBD (SinoBiological, Cat. …); test: ELISA on RBD
[3] = target: T1, SARS-CoV-2 RBD (SinoBiological, Cat. …); test: ELISA on RBD, compared with wildtype VHH-72
[4] = target: T1, SARS-CoV-2 RBD (SinoBiological, Cat. …)
[5] = target: T1, SARS-CoV-2 RBD (SinoBiological, Cat. …); test: ELISA, relative EC50

| Binder | Rel. EC50 - ELISA [1] | EC50 [2] [µg/mL] | other results |
| --- | --- | --- | --- |
| VHH-72(S57G) (VHH) VHH: QVQLQESGGGLVQAGGSLRLSCAASGRTFSEYAMGWFRQAPGKEREFVATISWSGGGTYYTDSVKGRFTISRDNAKNTVYLQMNSLKPDDTAVYYCAAAGLGTVVSEWDYDYDYWGQGTQVTVSS | 0.09 relative to WT | – | – |
| VHH-72 (S57A) (VHH) VHH: QVQLQESGGGLVQAGGSLRLSCAASGRTFSEYAMGWFRQAPGKEREFVATISWSGGATYYTDSVKGRFTISRDNAKNTVYLQMNSLKPDDTAVYYCAAAGLGTVVSEWDYDYDYWGQGTQVTVSS | 0.05 relative to WT | 0.09 | fold increase in RBD affinity [3]: 22 fold |
| VHH-72 (S57A, Y60H) (VHH) VHH: QVQLQESGGGLVQAGGSLRLSCAASGRTFSEYAMGWFRQAPGKEREFVATISWSGGATYHTDSVKGRFTISRDNAKNTVYLQMNSLKPDDTAVYYCAAAGLGTVVSEWDYDYDYWGQGTQVTVSS | – | 0.029 | fold further-increased apparent RBD affinity [4]: ~3.5 fold |
| VHH-72 (S57A, Y60T) (VHH) VHH: QVQLQESGGGLVQAGGSLRLSCAASGRTFSEYAMGWFRQAPGKEREFVATISWSGGATYTTDSVKGRFTISRDNAKNTVYLQMNSLKPDDTAVYYCAAAGLGTVVSEWDYDYDYWGQGTQVTVSS | – | 0.024 | fold further-increased apparent RBD affinity [4]: ~3.5 fold |
| VHH-72 (S57Y) (VHH) VHH: QVQLQESGGGLVQAGGSLRLSCAASGRTFSEYAMGWFRQAPGKEREFVATISWSGGYTYYTDSVKGRFTISRDNAKNTVYLQMNSLKPDDTAVYYCAAAGLGTVVSEWDYDYDYWGQGTQVTVSS | 0.28 relative to WT | – | fold increased apparent affinity [3]: ~4 fold |
| VHH-72 variant expressing both S57A and D61A (VHH) VHH: QVQLQESGGGLVQAGGSLRLSCAASGRTFSEYAMGWFRQAPGKEREFVATISWSGGATYYTASVKGRFTISRDNAKNTVYLQMNSLKPDDTAVYYCAAAGLGTVVSEWDYDYDYWGQGTQVTVSS | – | 0.012 | fold improved binding compared to the wildtype VHH-72 [3]: > 160 fold |
| VHH-72(D61A) (VHH) VHH: QVQLQESGGGLVQAGGSLRLSCAASGRTFSEYAMGWFRQAPGKEREFVATISWSGGSTYYTASVKGRFTISRDNAKNTVYLQMNSLKPDDTAVYYCAAAGLGTVVSEWDYDYDYWGQGTQVTVSS | – | 0.51 | fold increased RBD binding [3]: 4 fold |
| VHH-72(S57S) (VHH) VHH: QVQLQESGGGLVQAGGSLRLSCAASGRTFSEYAMGWFRQAPGKEREFVATISWSGGSTYYTDSVKGRFTISRDNAKNTVYLQMNSLKPDDTAVYYCAAAGLGTVVSEWDYDYDYWGQGTQVTVSS | 1 relative to WT | – | – |
| VHH-72(S57T) (VHH) VHH: QVQLQESGGGLVQAGGSLRLSCAASGRTFSEYAMGWFRQAPGKEREFVATISWSGGTTYYTDSVKGRFTISRDNAKNTVYLQMNSLKPDDTAVYYCAAAGLGTVVSEWDYDYDYWGQGTQVTVSS | – | – | binding result [5]: no binding |

From patent US20240059759A1 (BIGHAT BIOSCIENCES, published 2024)
